Tested on: biotinylated AP-CFP-TM on HeLa cells
Test: Staining of biotinylated AP-CFP-TM on HeLa with Alexa Fluor 568-conjugated streptavidins
Assay type: cell-based
Details: Alexa Fluor 568 conjugate 10 μg/mL, 10 min at 4° C.
Experimental: Enzymatic biotinylation and imaging of HeLa transfectants were performed as previously described (Howarth, M. et al., Proc. Natl. Acad. Sci. USA 102: 7583-7588, 2005), except instead of 10 μM biotin and 1 mM ATP, we added 10 μM biotin-AMP (synthesized according to Coleman and Huang; Coleman, T. M. and Huang, F. Chem. Biol. 9: 1227-1236, 2002) to give equivalent biotinylation but minimizing the risk of purinoreceptor activation by ATP (Rathbone, M. P. et al., Prog. Neurobiol. 59: 663-690, 1999). […] Biotinylation of neurons was performed at day in vitro (DIV) 8 in Hanks' Balanced Salt Solution (HBSS) (Invitrogen) with 0.2 μM biotin ligase and 10 μM biotin-AMP for 5 min at 37° C. […] Neurons were washed with NeuroBasal media (Invitrogen) supplemented with B-27 (Invitrogen), 50 U/mL penicillin, 50 μg/mL streptomycin, and 0.2 mM L-glutamine and chased in the same medium for 0 or 2 hr at 37° C. Cells were then fixed in −20° C. methanol. […]
Images of HeLa cells were collected on a Zeiss Axiovert 200M inverted epifluorescence microscope using a 40× oil-immersion lens and a MicroMAX CCD camera (Roper Scientific; Tucson, Ariz.). CFP (420DF20 excitation, 450DRLP dichroic, 475DF40 emission) and Alexa568 (560DF20 excitation, 585DRLP dichroic, 605DF30 emission) images were collected and analyzed using OpenLab software (Improvision; Lexington, Mass.). Fluorescence images were background-corrected. […] Images were scaled to 16 bits and analyzed in Northern Eclipse (Empix Imaging; Ontario, Canada) with user-written software. […] Results were then calculated in terms of clusters per micrometer of dendrite. For assessment of pre-synaptic terminals, clusters were determined as before and average grey levels of clusters were compared between transfected dendrites and untransfected dendrites within the same field of view. […] “n” represents the number of transfected neurons for which clusters were measured. […]

Row | Substance | Alexa staining of biotinylated AP-CFP-TM
1 | A1D3: Monovalent streptavidin tetramer: one His6-tagged wild-type (A) subunit and three dead (D) subunits [Tetramer A1D3] | detected equally well
2 | D4: Streptavidin tetramer with 4 dead subunits (D: N23A, S27D, S45A, SEQ ID NO:3) [Tetramer D4] | no detectable staining

From US20070105162A1, “Monovalent avidin and streptavidin compositions” (Massachusetts Institute of Technology, priority 2005, published 2007)
